In one assay the target is p110γ-p101 complex (human | Sus scrofa (porcine), UniProt P48736 1-1102; O02696 1-877). Nature of the assay: BLI.
In the next assay the target is p110γ-p84 complex (human | mouse, UniProt P48736 1-1102; Q3U6Q4 1-756). Kind of assay: BLI.
p110γ-p84 complex, sequence (P48736 whole entry, chain 1 of 2): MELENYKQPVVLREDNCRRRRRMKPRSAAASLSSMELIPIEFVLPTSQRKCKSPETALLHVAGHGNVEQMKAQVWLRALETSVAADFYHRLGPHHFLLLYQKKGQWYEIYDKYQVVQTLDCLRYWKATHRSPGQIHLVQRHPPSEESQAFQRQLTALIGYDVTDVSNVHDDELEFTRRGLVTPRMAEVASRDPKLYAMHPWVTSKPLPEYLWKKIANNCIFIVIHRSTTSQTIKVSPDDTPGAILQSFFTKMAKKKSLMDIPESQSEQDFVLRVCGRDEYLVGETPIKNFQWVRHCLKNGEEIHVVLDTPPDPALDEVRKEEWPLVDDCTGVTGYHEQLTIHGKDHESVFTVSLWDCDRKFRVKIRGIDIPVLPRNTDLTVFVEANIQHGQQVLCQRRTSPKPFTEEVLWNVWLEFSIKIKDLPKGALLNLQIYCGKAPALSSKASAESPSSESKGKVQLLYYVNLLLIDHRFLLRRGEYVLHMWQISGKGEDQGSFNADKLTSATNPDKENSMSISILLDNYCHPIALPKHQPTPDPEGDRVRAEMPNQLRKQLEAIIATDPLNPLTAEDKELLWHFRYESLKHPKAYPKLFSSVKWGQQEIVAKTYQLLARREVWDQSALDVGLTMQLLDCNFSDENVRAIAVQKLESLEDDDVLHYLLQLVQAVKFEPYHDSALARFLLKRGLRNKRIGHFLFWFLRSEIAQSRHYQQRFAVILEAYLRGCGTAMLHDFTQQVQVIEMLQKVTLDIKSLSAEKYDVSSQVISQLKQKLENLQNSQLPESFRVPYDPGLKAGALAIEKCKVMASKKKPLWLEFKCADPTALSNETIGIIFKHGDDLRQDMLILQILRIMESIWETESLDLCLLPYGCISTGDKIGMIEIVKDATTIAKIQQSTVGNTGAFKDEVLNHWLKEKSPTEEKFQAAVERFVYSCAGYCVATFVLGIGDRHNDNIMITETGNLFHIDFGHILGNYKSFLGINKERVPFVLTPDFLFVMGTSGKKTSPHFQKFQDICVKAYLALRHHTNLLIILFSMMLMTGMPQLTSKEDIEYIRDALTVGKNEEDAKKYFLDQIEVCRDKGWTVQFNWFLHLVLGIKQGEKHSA
p110γ-p84 complex, sequence (Q3U6Q4 whole entry, chain 2 of 2): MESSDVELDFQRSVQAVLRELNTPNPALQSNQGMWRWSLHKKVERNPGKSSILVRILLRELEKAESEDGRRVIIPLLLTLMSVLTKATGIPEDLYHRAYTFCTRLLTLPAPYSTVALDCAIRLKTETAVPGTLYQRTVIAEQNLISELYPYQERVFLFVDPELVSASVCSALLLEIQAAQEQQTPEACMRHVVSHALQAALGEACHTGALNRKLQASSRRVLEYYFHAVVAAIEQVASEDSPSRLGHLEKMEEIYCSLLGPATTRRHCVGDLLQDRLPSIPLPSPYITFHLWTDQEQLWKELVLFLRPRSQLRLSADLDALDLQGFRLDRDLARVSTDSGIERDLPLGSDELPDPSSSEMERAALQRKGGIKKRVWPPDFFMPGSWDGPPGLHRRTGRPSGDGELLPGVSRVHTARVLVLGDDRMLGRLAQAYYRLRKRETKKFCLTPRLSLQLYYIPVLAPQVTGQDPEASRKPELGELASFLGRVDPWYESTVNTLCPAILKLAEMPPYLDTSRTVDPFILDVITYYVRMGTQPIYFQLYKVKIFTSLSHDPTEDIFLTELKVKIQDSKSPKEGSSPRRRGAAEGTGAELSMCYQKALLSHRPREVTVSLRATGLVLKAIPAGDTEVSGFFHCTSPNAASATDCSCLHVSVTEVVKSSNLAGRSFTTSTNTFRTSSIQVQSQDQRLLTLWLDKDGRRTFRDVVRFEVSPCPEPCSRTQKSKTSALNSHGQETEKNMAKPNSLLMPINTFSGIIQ

p110γ-p101 complex, sequence (P48736 whole entry, chain 1 of 2): as the sequence (P48736 whole entry, chain 1 of 2) above
p110γ-p101 complex, sequence (O02696 whole entry, chain 2 of 2): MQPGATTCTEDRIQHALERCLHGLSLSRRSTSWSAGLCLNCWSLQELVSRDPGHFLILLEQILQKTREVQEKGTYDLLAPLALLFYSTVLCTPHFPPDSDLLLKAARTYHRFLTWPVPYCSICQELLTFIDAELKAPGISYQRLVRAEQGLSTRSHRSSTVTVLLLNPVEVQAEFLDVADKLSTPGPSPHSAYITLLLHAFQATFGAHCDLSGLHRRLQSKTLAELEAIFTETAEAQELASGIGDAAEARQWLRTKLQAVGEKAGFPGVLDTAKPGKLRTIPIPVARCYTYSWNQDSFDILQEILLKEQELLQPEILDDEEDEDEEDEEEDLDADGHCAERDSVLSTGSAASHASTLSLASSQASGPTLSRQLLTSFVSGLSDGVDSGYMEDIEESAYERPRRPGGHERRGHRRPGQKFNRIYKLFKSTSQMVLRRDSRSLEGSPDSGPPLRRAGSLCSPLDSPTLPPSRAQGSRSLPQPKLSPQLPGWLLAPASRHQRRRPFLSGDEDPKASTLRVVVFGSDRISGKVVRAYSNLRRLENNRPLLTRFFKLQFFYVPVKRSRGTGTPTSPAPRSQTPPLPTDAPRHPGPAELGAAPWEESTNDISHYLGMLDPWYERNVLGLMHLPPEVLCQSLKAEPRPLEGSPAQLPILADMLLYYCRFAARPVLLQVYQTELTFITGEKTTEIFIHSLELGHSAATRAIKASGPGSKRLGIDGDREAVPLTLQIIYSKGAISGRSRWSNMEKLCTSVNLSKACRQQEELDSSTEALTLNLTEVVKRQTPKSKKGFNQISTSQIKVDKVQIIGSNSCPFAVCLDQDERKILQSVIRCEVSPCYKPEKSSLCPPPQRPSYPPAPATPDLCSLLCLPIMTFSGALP

B1: Nanobody NB7-PIK3CG (VHH)
VHH: QVQLVESGGGLVQPGGSLRLSCAASGSIFSINAMGWYRQAPGKQRELVAHITSGGSTNYADSVKGRFTISRDNAKNTVYLQMNSLKPEDTAVYYCNEAGDPFLGSTWNGPPAFGSWGQGTQVTVSS
B1: the results for the Kd in the assay with p110γ-p101 complex and with p110γ-p84 complex were 3.1 nM and 3 nM, respectively.
